Reference: article PMC2760979 (Cancer research, 2009)

Biological target: GST-p65(1-306) (UniProt Q04206 1-306)
Assay: pull-down

GST-p65(1-306), sequence (Q04206 1-306): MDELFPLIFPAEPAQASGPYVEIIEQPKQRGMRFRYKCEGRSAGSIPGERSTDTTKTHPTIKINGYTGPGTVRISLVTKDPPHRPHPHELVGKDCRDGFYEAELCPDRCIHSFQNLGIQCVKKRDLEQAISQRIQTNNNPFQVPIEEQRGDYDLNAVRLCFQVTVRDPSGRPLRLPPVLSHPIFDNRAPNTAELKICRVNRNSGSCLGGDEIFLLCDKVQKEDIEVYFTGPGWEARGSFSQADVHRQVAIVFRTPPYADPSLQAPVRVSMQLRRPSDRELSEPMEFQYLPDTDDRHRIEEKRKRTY

GGSSLSY [GGSSLSY peptide]
binding result: binds
